Earlier results as cited in paper PMC6136702.

Target: EGFR (Homo sapiens) (UniProt P00533)

Kd: 0.2 nM
Substance: EGF (from UniProt P01133)
